# B1: truncated human FUT8 (HsFUT8_(105-575)) (domain or fragment)
# chain: RNGLGKDHEILRRRIENGAKELWFFLQSELKKLKNLEGNELQRHADEFLLDLGHHERSIMTDLYYLSQTDGAGDWREKEAKDLTELVQRRITYLQNPKDCSKAKKLVCNINKGCGYGCQLHHVVYCFMIAYGTQRTLILESQNWRYATGGWETVFRPVSETCTDRSGISTGHWSGEVKDKNVQVVELPIVDSLHPRPPYLPLAVPEDLADRLVRVHGDPAVWWVSQFVKYLIRPQPWLEKEIEEATKKLGFKHPVIGVHVRRTDKVGTEAAFHPIEEYMVHVEEHFQLLARRMQVDKKRVYLATDDPSLLKEAKTKYPNYEFISDNSISWSAGLHNRYTENSLRGVILDIHFLSQADFLVCTFSSQVCRVAYEIMQTLHPDASANFHSLDDIYYFGGQNAHNQIAIYAHQPRTADEIPMEPGDIIGVAGNHWDGYSKGVNRKLGRTGLYPSYKVREKIETVKYPTYPEAEK
# B2: mouse FUT8 (MmFUT8_(68-575)) (domain or fragment)
# chain: RIPEGPIDQGTATGRVRVLEEQLVKAKEQIENYKKQARNGLGKDHEILRRRIENGAKELWFFLQSELKKLKHLEGNELQRHADEILLDLGHHERSIMTDLYYLSQTDGAGDWREKEAKDLTELVQRRITYLQNPKDCSKARKLVCNINKGCGYGCQLHHVVYCFMIAYGTQRTLILESQNWRYATGGWETVFRPVSETCTDRSGLSTGHWSGEVNDKNIQVVELPIVDSLHPRPPYLPLAVPEDLADRLLRVHGDPAVWWVSQFVKYLIRPQPWLEKEIEEATKKLGFKHPVIGVHVRRTDKVGTEAAFHPIEEYMVHVEEHFQLLARRMQVDKKRVYLATDDPTLLKEAKTKYSNYEFISDNSISWSAGLHNRYTENSLRGVILDIHFLSQADFLVCTFSSQVCRVAYEIMQTLHPDASANFHSLDDIYYFGGQNAHNQIAVYPHKPRTEEEIPMEPGDIIGVAGNHWDGYSKGINRKLGKTGLYPSYKVREKIETVKYPTYPEAEK
# Key:
# SEC-SAXS = biological target: the molecule itself; test: SEC-SAXS
# crystal structure = biological target: the molecule itself; test: crystal structure
Protein,stoichiometry N (SEC-SAXS),binding result (crystal structure)
B1,2,–
B2,–,binds

# From article doi:10.1101/2020.02.14.949818 (bioRxiv, 2020)
